Measurements: the DeepSol protein solubility set

Assay: soluble on expression in E. coli; label from the status in PepcDB or PDB records

Row | Sequence | soluble on expression in E. coli
1 | MSLSKFAERLQTVANKPEVFQKFSRGLERESLRYTPEGALTQTPHPKALGAALTHRWITTDFAESLLEFITPVSHEVDTLLAQMSDIHHFAQTKLGDEKLWPLSMPCYVGSEEGIVLAQYGSSNTGKMKTLYREGLKRRYGSLMQIISGVHFNFSFPESFWDALFGEQEESARQASKSAAYFGVIRNYYRFGWLIPYLFGASPALCSSFLQGRKTDLPFESIGKTLYLPYATSLRLSDLGYTNSAQSVLQIGFNSIEQYLQGLNEAIRTPSAEFAKLGVKVEGEYRQLNSNVLQIENELYAPIRPKRVTQSGERPSQALARAGVEYIEVRSLDVNPFSPIGINEDQVRFLDLFLAWTALSDSDPMDGCELACWRDNWRKVVLEGRKPGLELQIGCHGEVLTLQAWAKRVFADLRVIAETMDAALGGDAYQAVCAKLETWIENPELTLSAQILAEIKQHGGLGKTGCALGNEYRAVNLQHQYQFYSQDEMEQEVRRSTQAQADIEAKETLNFDAYLTQYFAYLQAVSEGGSHHHHHH | soluble
2 | MEPADEPSELVSAEGRNRKAVLCQRCGSRVLQPGTALFSRRQLFLPSMRKKPALSDGSNPDGDLLQEHWLVEDMFIFENVGFTKDVGNIKFLVCADCEIGPIGWHCLDDKNSFYVALERVSHE | soluble
3 | RLKALRKEQGKALKKDKKLAEPKARVYVLDFDGDIKASATESMRHEITALLTLATDKDEVVLRLESGGGMVHSYGLASSQLARIRQAGIPLTVCIDKVAASGGYMMACIGNKIISAPFAILGSIGVVAQLPNVNRLLKKHDIDFEVLTAGEYKRTLTVFGENTEKGREKFQQDLDITHDLFKNFVASYRPQLSIDEVATGEVWLGMAAVDKLLVDELKTSDE | not soluble
4 | MPPSLRKAVAAAIGGGAIAIASVLITGPSGNDGLEGVSYIPYKDIVGVWTVCHGHTGKDIMLGKTYTKAECKALLNKDLATVARQINPYIKVDIPETTRGALYSFVYNVGAGNFRTSTLLRKINQGDIKGACDQLRRWTYAGGKQWKGLMTRREIEREVCLWGQQ | not soluble
5 | GPGSMHSMVRVGLTNGMVLTGRIVEFDAVTMNMKLDAITDMAVLHPAAGEGCGDSAYETNPAALRCCNSVVVRGCHLRYMDFIDEESDNGRGLQELITAVRVVKPSVPQD | not soluble
6 | MAGVSTTQSGAIGVDRTQYMSSLVPEQALVQEAGQQYAEIVQEARAKGLLDRDPAQLSRVRAISQRLIAQTGVFRADAANWPWEVHVLSVDEVNAWCMPGGKIAVYTGLLAHIKPTDDELAAVLGHEIAHALREHARERVSQQMATSIGLSVLSMATGSPGASDLGGKLTEVMFTLPNSRTHETEADRMGVELAARAGFDPRAAVTLWQKMGAADGNAPPEFLSTHPSASTRIGELQQALQKVLPLYEQARGQAAKLEHHHHHH | not soluble
7 | MSLKQKILIVEDSLTIRRMLIQAIAQQTGLEIDAFDTLEGARHCRGEEYVVALVDLTLPDAPSGEAVKVLLERGLPVVILTADISEEKRAAWLEAGVLDYVMKDSRHSLQYAVSLVHRLYLNQRIEVLVVDDSRTSRHRTMAQLRKQLLQVHEASHAREALAQLEQNPAIRLVLVDYYMPEIDGISLVRMLRERYSKQQLAIIGISVSDKRGLSARYLKQGANDFLNQPFEPEELQCRVSHNLEALEQFNSIQESANRDYLTGLYNRRYWFNEGQKWFEEHQRQETPLALCVLDVDHFKQVNDHWGHAIGDQLLCHLTRLLTQFFPDAMIARFGGEEFALMVPHCTVPVLLKRLEGLRQQMRQQPLSRETPLFVRASFGVIKVGRGSMDEALSEADRLLYQAKNTGRDKIVSQDSSEGHHHHHH | soluble
8 | SLELWLNKATDPSMSEQDWSAIQNFCEQVNTDPNGPTHAPWLLAHKIQSPQEKEALYALTVLEMCMNHCGEKFHSEVAKFRFLNELIKVLSPKYLGSWATGKVKGRVIEILFSWTVWFPEDIKIRDAYQMLKKQGIIKQDPKLPVDKI | soluble
9 | MGSDKIHHHHHHMKIAIVGGPTAVGKTDIMIEVCEEIGAEIISMDSRQIYRYMDIGTAKPTPEQRKRVLHHMIDIIDPDEYYNAFMYRKDSLRAMEDVLRRGKIPVYVGGTGLYADALVRGIFEGVPADENIRKELRELERREPGILRKMLEELDPEAATRIHPNDLKRTIRALEVYMKTGRRISELQKEAKGDDRFFIIVLTRERYELYERINKRVDKMIEMGLVDEVKRLLGMGYSKDLNSMKTIGYKEVIDYLEGKYDFDKMVHLIKRNTRHFARRQIIWFKRYKEAVWYNLTFEDVGEVKEKLKKLIVENFSV | not soluble
